Some results are limits rather than exact numbers.

Test [1] addresses site-specifically biotinylated IL-17RB, immobilized (human) (UniProt Q9NRM6). Description: SPR; Biacore T100; about 300 RU of site-specifically biotinylated IL-17RB immobilized on a Series S Sensor Chip SA; regeneration 2 M MgCl2; steady-state affinity analysis. (In SPR one partner is held on a chip, and binding of the other changes the refractive index at the surface.)
The target in test [2] is T1, IL-17RB (18-502) fused to the ALFA-tag, on HeLa cells (human) (UniProt Q9NRM6).
T1 sequence: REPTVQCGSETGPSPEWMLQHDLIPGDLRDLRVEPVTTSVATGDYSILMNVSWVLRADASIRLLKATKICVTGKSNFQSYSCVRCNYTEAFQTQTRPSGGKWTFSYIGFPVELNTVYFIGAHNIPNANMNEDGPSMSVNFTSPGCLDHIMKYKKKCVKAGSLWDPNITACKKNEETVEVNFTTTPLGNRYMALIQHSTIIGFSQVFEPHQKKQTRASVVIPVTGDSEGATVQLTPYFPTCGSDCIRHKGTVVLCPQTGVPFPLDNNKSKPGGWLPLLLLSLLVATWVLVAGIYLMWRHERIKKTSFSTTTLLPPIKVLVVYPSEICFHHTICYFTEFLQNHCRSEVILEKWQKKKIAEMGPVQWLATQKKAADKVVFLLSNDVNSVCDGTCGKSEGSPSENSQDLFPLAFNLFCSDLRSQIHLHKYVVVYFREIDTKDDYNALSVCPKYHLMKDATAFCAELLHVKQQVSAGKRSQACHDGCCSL

For test [3], the target named is T2, IL-17RB (1-288) (human, UniProt Q9NRM6 18-288).
T2 construct: signal peptide in the construct; IL-17 receptor B (IL-17RB), human, amino acids 1-288; Two constructs are named (C-terminal 3C-proteinC-8xHis in pVLAD6; C-terminal Avitag-6xHis in pD649); also called IL-17 receptor B; apo-IL-17RB
T2 sequence (looked up): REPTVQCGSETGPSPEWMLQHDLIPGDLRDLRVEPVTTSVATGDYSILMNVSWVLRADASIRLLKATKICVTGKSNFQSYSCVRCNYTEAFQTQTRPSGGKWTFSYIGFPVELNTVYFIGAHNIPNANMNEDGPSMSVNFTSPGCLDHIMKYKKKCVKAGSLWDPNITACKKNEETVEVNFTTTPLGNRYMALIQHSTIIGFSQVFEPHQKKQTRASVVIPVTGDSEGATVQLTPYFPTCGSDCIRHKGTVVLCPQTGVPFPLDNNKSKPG
Briefly: cryo-EM structure; IL-25 and IL-17RB co-expressed in Expi293F GnTI- cells and co-purified; 2:2 complex (3.18 Å) and higher-order 6:6 complex (4.39 Å) from one sample; HBS 20/150 pH 7.4. Particulars: both partners purified.

Usually Kd stands for the constant that tells how readily two partners part at equilibrium. Read a high Kd as weaker binding. The molecule “IL-17RA (1-317) (from UniProt Q96F46 33-317) (receptor)” yielded a Kd in test [1] of 13.8 µM.

B1: IL-25 Y92A (ligand)
chain: THTYSHWPSCCPSKGQDTSEELLRWSTVPVPPLEPARPNRHPESCRASEDGPLNSRAISPWRAELDRDLNRLPQDLYHARCLCPHCVSLQTGSHMDPRGNSELLYHNQTVFYRRPCHGEKGTHKGYCLERRLYRVSLACVCVRPRVMG
For B1, the NF-κB reporter (SEAP) HEK293 cells expressing IL-17RA, ACT1 and endogenous IL-17RB, varying concentrations of IL-25 mutant: EC50 shift relative to WT IL-25 in test [2] is more than 3 log-fold.

B2: IL-25 (amino acids 30-177) (ligand, human, UniProt Q9H293 30-177, looked up)
chain: THTYSHWPSCCPSKGQDTSEELLRWSTVPVPPLEPARPNRHPESCRASEDGPLNSRAISPWRYELDRDLNRLPQDLYHARCLCPHCVSLQTGSHMDPRGNSELLYHNQTVFYRRPCHGEKGTHKGYCLERRLYRVSLACVCVRPRVMG
notes: IL-25 (IL-17E), human, amino acids 30-177; Two constructs are named (Igk signal peptide with C-terminal 3C-cleavable Avitag-6xHis in pEG BacMam; HA signal peptide with C-terminal Avitag-6xHis in a lentiviral vector); also called IL-17E; WT IL-25
Turning to B2, in test [3], the binding result is recorded as “binds”.

The record behind these values is publication PMC9477748, “Organizing structural principles of the IL-17 ligand–receptor axis” (Nature, 2022).
